Measured values: patent publication US20190248900A1 (Y BIOLOGICS, published 2019)

B1: PD1-72D10 (antibody, V domains shown)
VH: QVQLVESGGGVVQPGRSLRLSCAASGFTFSSYAMHWVRQAPGKGLEWVAVISYDGSNKYYADSVKGRFTISRDNSKNTLYLQMNSLRAEDTAVYYCTTTTFDSWGQGTLVTVSS
VL: DIVMTQTPLSLPVTPGEAASISCRSSQSLLDSEDGNTYLDWYLQKPGQSPQLLIYTLSHRASGVPDRFSGSGSGTDFTLKISRVEAEDVGIYYCMQRVEFPFTFGQGTKLEIK
B2: PD1-45D6(A/4C1) (antibody, V domains shown)
VH: QVQLVESGGGVVQPGRSLRLSCAASGFTFSSYAMHWVRQAPGKGLEWVAVISYDGNDKYYADSVKGRFTISRDNSKNTLYLQMNSLRAEDTAVYYCVPTTFEYWGQGTLVTVSS
VL: DIVMTQTPLSLPVTPGEPASISCRSSQSLLDSDDGNTYLDWYLQKPGQSPQLLIYTLSHRASGVPDRFSGSGSGTDFTLKISRVEAEDVGIYYCMQRVEFPFTFGQGTKLDIK
B3: PD1-45D6(A/3H6) (antibody, V domains shown)
VH: QVQLVESGGGVVQPGRSLRLSCAASGFTFSSYAMHWVRQVPGKGLEWVAVISYDGNDKYYADSVKGRFTISRDNSKNTLYLQMNSLRAEDTAVYYCVPTTFEYWGQGSQVTVSS
VL: DIVMTQTPLSLPVTPGEAASISCRSSQSLLDSEDGNTYLDWYLQKPGQSPQLLIYTLSHRASGVPDRFSGSGSGTDFTLKISRVEAEDVGVYYCMQRVEFPFTFGQGTKLEIK
B4: PD1-75C10 (antibody, V domains shown)
VH: QVQLVESGGGVVQPGRSLRLSCAASGFTFSSYAMHWVRQAPGKGLEWVAVISYDGSNKYYADSVKGRFTISRDNSKNTLYLQMNSLRAEDTAVYYCVPTTFEYWGQGSQVTVSS
VL: DIVMTQTPLSLPVTPGEAASISCRSSQSLLDSEDGNTYLDWYLQKPGQSPQLLIYTLSHRASGVPDRFSGSGSGTDFTLKITRVEAEDVGVYYCMQRIEFPYTFGQGTKLEIK
B5: PD1-45D6(A/4C9) (antibody, V domains shown)
VH: QVQLVESGGGVVQPGRSLRLSCAASGFTFSSYAMHWVRQAPGKGLEWVAVISYDGNDKYYADSVKGRFTISRDNSKNTLYLQMNSLRAEDTAVYYCVPTTFEYWGQGTLVTVSS
VL: DIVMTQTPLSLPVTPGEAASISCRSSQSLLDSEDGNTYLDWYLQKPGQSPQLLIYTLSHRASGVPDRFSGSGSGTDFTLKISRVAAEDVGIYYCMQRVEFPFTFGQGTKLEIK
B6: PD1-74A11 (antibody, V domains shown)
VH: QVQLVQSGGGVVQPGRSLRLSCAASGFTFSSYAMHWVRQAPGKGLEWVAVISYDGSNKYYADSVKGRFTISRDNSKNTLYLQMNSLRAEDTAVYYCARTTFDYWGQGTLITVSS
VL: DIVMTQTPLSLPVTPGEPASISCRSSQSLFDSDDGNTYLDWYLQKPGQSPQLLIYTLSYRASGVPDRFSGSGSGTDFTLKISRVAAEDVGIYYCMQRVEFPFTFGQGTKVDIK
B7: PD1-45D6(A/3G1) (antibody, V domains shown)
VH: QVQLVESGGGVVQPGRSLRLSCAASGFTFSSYAMHWVRQVPGKGLEWVAVISYDGNDKYYADSVKGRFTISRDNSKNTLYLQMNSLRAEDTAVYYCVPTTFEYWGQGSQVTVSS
VL: DIVMTQTPLSLPVTPGEPASISCRSSQSLLDSEDGNTYLDWYLQKPGQSPQLLIYTLSHRASGVPDRFSGSGSGTDFTLEISRVEAEDVGVYYCMQRVEFPFTFGQGTKLDIK
B8: PD1-45D6(A/3H4) (antibody, V domains shown)
VH: QVQLVESGGGVVQPGRSLRLSCAASGFTFSSYAMHWVRQVPGKGLEWVAVISYDGNDKYYADSVKGRFTISRDNSKNTLYLQMNSLRAEDTAVYYCVPTTFEYWGQGSQVTVSS
VL: DIVMTQTPLSLPVTPGEPASISCRSSQSLFDSDDGNTYLDWYLQKPGQSPQLLIYTLSHRASGVSDRFSGSGSGTDFTLKISRVEAEDSGIYYCMQRVEFPFTFGQGTKLDIK

biological target: human PD-1 (NM_005018.2) over-expressed on cells (human, UniProt Q15116 25-288); experiment: cell-based or functional assay
Sequence (Q15116 25-288): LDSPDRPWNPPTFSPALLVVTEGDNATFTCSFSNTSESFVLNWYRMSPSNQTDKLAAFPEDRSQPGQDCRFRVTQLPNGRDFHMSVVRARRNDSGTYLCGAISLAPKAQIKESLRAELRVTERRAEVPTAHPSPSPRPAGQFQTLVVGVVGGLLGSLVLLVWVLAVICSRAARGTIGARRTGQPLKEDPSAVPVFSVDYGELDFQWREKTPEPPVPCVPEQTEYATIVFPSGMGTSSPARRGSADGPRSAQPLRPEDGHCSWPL

Question: B1 was tested. Which “EC50 [nM], PD1/PD-L1 blockade bioassay” value did it give?
Answer: 1.21 nM

Question: For B2, which “EC50 [nM], PD1/PD-L1 blockade bioassay” value is on record?
Answer: 1.76 nM

Question: B3 was tested. Which “EC50 [nM], PD1/PD-L1 blockade bioassay” value did it give?
Answer: 1.49 nM

Question: B4 was tested. Which “EC50 [nM], PD1/PD-L1 blockade bioassay” value did it give?
Answer: 0.81 nM

Question: With B5 as the binder, how does the “EC50 [nM], PD1/PD-L1 blockade bioassay” value read?
Answer: 2.72 nM

Question: Which “EC50 [nM], PD1/PD-L1 blockade bioassay” value does the source give for B6 here?
Answer: 1.31 nM

Question: For B7, which “EC50 [nM], PD1/PD-L1 blockade bioassay” value is on record?
Answer: 0.98 nM

Question: Which “EC50 [nM], PD1/PD-L1 blockade bioassay” value does the source give for B8 here?
Answer: 1.67 nM
